System: CyPPO13
Assay: PPO enzyme activity and IC50 by herbicides, CyPPO13 wild type and variants (MBP-PPO fusion)
Assay type: biochemical, Synechococcus sp. JA-3-3Ab
Conditions: PPO enzyme activity of CyPPO13 protein, wild type = 100
Method in brief: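 MBP-fused wild-type and variant CyPPO10 or CyPPO13 were expressed in E. coli BL21(DE3) and purified. After a 30 min oxygen-depleting preincubation with glucose oxidase-catalase in 50 mM Tris-Cl pH 8.0, 50 mM NaCl and 0.04% Tween 20, reactions used 50 μM substrate for 30 min at room temperature. Protoporphyrin IX fluorescence (ex 405/em 633 nm) was quantified against a standard curve.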

| Molecule | Activity (%) |
| --- | --- |
| CyPPO13 G194R + F373M: CyPPO13 (SEQ ID NO: 4) PPO variant (protein, Synthetic CyPPO13) MNPATPEPLNAEVVVIGAGISGLTLAWRLQQGLSARGGSPQAVLLAEASSRVGGCISTQSKDGYRWEEGPNSFTPTPALLNLIAEVGLTDQLVLADAKLPRYIYWEGALLPVPLSPAAALGSRLLSVGGKLRALQGLLGFVPPPPGHEETVRQFFRRQLGSEVAERLVEPFTSGVYAGDPDQLSAVAAFPRVARLEERYGSLFAGALQALRQRPQPSPAAIQPPPKRGQLGNLRQGLQQLPEALAQKLGDSLRLGWRALQLKRAGELYWVGFETPEGSRWVAARQVVLALPAYEAAALLQELNPPASQLLAEILYPPVAVVALAYPQEALPQPLRGFGHLIPRSQGLRTLGTIWASCLFPERAPQGYHSFLSMLGGATDAALARRRGIPPIPALSPEERAQIAHAELSQVLLTRRAEPVYLGERLWPRAIPQYTLGHRQRIAQVQAHLASQTPGIWVCANYLDGVALGDCVRRAEALAQQLLSQV | 35 |
| CyPPO13 F337V: CyPPO13 (SEQ ID NO: 4) PPO variant (protein, Synthetic CyPPO13) MNPATPEPLNAEVVVIGAGISGLTLAWRLQQGLSARGGSPQAVLLAEASSRVGGCISTQSKDGYRWEEGPNSFTPTPALLNLIAEVGLTDQLVLADAKLPRYIYWEGALLPVPLSPAAALGSRLLSVGGKLRALQGLLGFVPPPPGHEETVRQFFRRQLGSEVAERLVEPFTSGVYAGDPDQLSAVAAFPRVAGLEERYGSLFAGALQALRQRPQPSPAAIQPPPKRGQLGNLRQGLQQLPEALAQKLGDSLRLGWRALQLKRAGELYWVGFETPEGSRWVAARQVVLALPAYEAAALLQELNPPASQLLAEILYPPVAVVALAYPQEALPQPLRGVGHLIPRSQGLRTLGTIWASCLFPERAPQGYHSFLSFLGGATDAALARRRGIPPIPALSPEERAQIAHAELSQVLLTRRAEPVYLGERLWPRAIPQYTLGHRQRIAQVQAHLASQTPGIWVCANYLDGVALGDCVRRAEALAQQLLSQV | 88 |
| CyPPO13 F171A: CyPPO13 (SEQ ID NO: 4) PPO variant (protein, Synthetic CyPPO13) MNPATPEPLNAEVVVIGAGISGLTLAWRLQQGLSARGGSPQAVLLAEASSRVGGCISTQSKDGYRWEEGPNSFTPTPALLNLIAEVGLTDQLVLADAKLPRYIYWEGALLPVPLSPAAALGSRLLSVGGKLRALQGLLGFVPPPPGHEETVRQFFRRQLGSEVAERLVEPATSGVYAGDPDQLSAVAAFPRVAGLEERYGSLFAGALQALRQRPQPSPAAIQPPPKRGQLGNLRQGLQQLPEALAQKLGDSLRLGWRALQLKRAGELYWVGFETPEGSRWVAARQVVLALPAYEAAALLQELNPPASQLLAEILYPPVAVVALAYPQEALPQPLRGFGHLIPRSQGLRTLGTIWASCLFPERAPQGYHSFLSFLGGATDAALARRRGIPPIPALSPEERAQIAHAELSQVLLTRRAEPVYLGERLWPRAIPQYTLGHRQRIAQVQAHLASQTPGIWVCANYLDGVALGDCVRRAEALAQQLLSQV | 70 |
| CyPPO13 V318M: CyPPO13 (SEQ ID NO: 4) PPO variant (protein, Synthetic CyPPO13) MNPATPEPLNAEVVVIGAGISGLTLAWRLQQGLSARGGSPQAVLLAEASSRVGGCISTQSKDGYRWEEGPNSFTPTPALLNLIAEVGLTDQLVLADAKLPRYIYWEGALLPVPLSPAAALGSRLLSVGGKLRALQGLLGFVPPPPGHEETVRQFFRRQLGSEVAERLVEPFTSGVYAGDPDQLSAVAAFPRVAGLEERYGSLFAGALQALRQRPQPSPAAIQPPPKRGQLGNLRQGLQQLPEALAQKLGDSLRLGWRALQLKRAGELYWVGFETPEGSRWVAARQVVLALPAYEAAALLQELNPPASQLLAEILYPPMAVVALAYPQEALPQPLRGFGHLIPRSQGLRTLGTIWASCLFPERAPQGYHSFLSFLGGATDAALARRRGIPPIPALSPEERAQIAHAELSQVLLTRRAEPVYLGERLWPRAIPQYTLGHRQRIAQVQAHLASQTPGIWVCANYLDGVALGDCVRRAEALAQQLLSQV | 81 |
| CyPPO13 I353T: CyPPO13 (SEQ ID NO: 4) PPO variant (protein, Synthetic CyPPO13) MNPATPEPLNAEVVVIGAGISGLTLAWRLQQGLSARGGSPQAVLLAEASSRVGGCISTQSKDGYRWEEGPNSFTPTPALLNLIAEVGLTDQLVLADAKLPRYIYWEGALLPVPLSPAAALGSRLLSVGGKLRALQGLLGFVPPPPGHEETVRQFFRRQLGSEVAERLVEPFTSGVYAGDPDQLSAVAAFPRVAGLEERYGSLFAGALQALRQRPQPSPAAIQPPPKRGQLGNLRQGLQQLPEALAQKLGDSLRLGWRALQLKRAGELYWVGFETPEGSRWVAARQVVLALPAYEAAALLQELNPPASQLLAEILYPPVAVVALAYPQEALPQPLRGFGHLIPRSQGLRTLGTTWASCLFPERAPQGYHSFLSFLGGATDAALARRRGIPPIPALSPEERAQIAHAELSQVLLTRRAEPVYLGERLWPRAIPQYTLGHRQRIAQVQAHLASQTPGIWVCANYLDGVALGDCVRRAEALAQQLLSQV | 62 |
| CyPPO13 A177L: CyPPO13 (SEQ ID NO: 4) PPO variant (protein, Synthetic CyPPO13) MNPATPEPLNAEVVVIGAGISGLTLAWRLQQGLSARGGSPQAVLLAEASSRVGGCISTQSKDGYRWEEGPNSFTPTPALLNLIAEVGLTDQLVLADAKLPRYIYWEGALLPVPLSPAAALGSRLLSVGGKLRALQGLLGFVPPPPGHEETVRQFFRRQLGSEVAERLVEPFTSGVYLGDPDQLSAVAAFPRVAGLEERYGSLFAGALQALRQRPQPSPAAIQPPPKRGQLGNLRQGLQQLPEALAQKLGDSLRLGWRALQLKRAGELYWVGFETPEGSRWVAARQVVLALPAYEAAALLQELNPPASQLLAEILYPPVAVVALAYPQEALPQPLRGFGHLIPRSQGLRTLGTIWASCLFPERAPQGYHSFLSFLGGATDAALARRRGIPPIPALSPEERAQIAHAELSQVLLTRRAEPVYLGERLWPRAIPQYTLGHRQRIAQVQAHLASQTPGIWVCANYLDGVALGDCVRRAEALAQQLLSQV | 97 |
| CyPPO13 V175C: CyPPO13 (SEQ ID NO: 4) PPO variant (protein, Synthetic CyPPO13) MNPATPEPLNAEVVVIGAGISGLTLAWRLQQGLSARGGSPQAVLLAEASSRVGGCISTQSKDGYRWEEGPNSFTPTPALLNLIAEVGLTDQLVLADAKLPRYIYWEGALLPVPLSPAAALGSRLLSVGGKLRALQGLLGFVPPPPGHEETVRQFFRRQLGSEVAERLVEPFTSGCYAGDPDQLSAVAAFPRVAGLEERYGSLFAGALQALRQRPQPSPAAIQPPPKRGQLGNLRQGLQQLPEALAQKLGDSLRLGWRALQLKRAGELYWVGFETPEGSRWVAARQVVLALPAYEAAALLQELNPPASQLLAEILYPPVAVVALAYPQEALPQPLRGFGHLIPRSQGLRTLGTIWASCLFPERAPQGYHSFLSFLGGATDAALARRRGIPPIPALSPEERAQIAHAELSQVLLTRRAEPVYLGERLWPRAIPQYTLGHRQRIAQVQAHLASQTPGIWVCANYLDGVALGDCVRRAEALAQQLLSQV | 94 |
| CyPPO13 E340T: CyPPO13 (SEQ ID NO: 4) PPO variant, printed E340T, probably L340T (protein, Synthetic CyPPO13) MNPATPEPLNAEVVVIGAGISGLTLAWRLQQGLSARGGSPQAVLLAEASSRVGGCISTQSKDGYRWEEGPNSFTPTPALLNLIAEVGLTDQLVLADAKLPRYIYWEGALLPVPLSPAAALGSRLLSVGGKLRALQGLLGFVPPPPGHEETVRQFFRRQLGSEVAERLVEPFTSGVYAGDPDQLSAVAAFPRVAGLEERYGSLFAGALQALRQRPQPSPAAIQPPPKRGQLGNLRQGLQQLPEALAQKLGDSLRLGWRALQLKRAGELYWVGFETPEGSRWVAARQVVLALPAYEAAALLQELNPPASQLLAEILYPPVAVVALAYPQEALPQPLRGFGHTIPRSQGLRTLGTIWASCLFPERAPQGYHSFLSFLGGATDAALARRRGIPPIPALSPEERAQIAHAELSQVLLTRRAEPVYLGERLWPRAIPQYTLGHRQRIAQVQAHLASQTPGIWVCANYLDGVALGDCVRRAEALAQQLLSQV | 83 |
| CyPPO13 R101A: CyPPO13 (SEQ ID NO: 4) PPO variant (protein, Synthetic CyPPO13) MNPATPEPLNAEVVVIGAGISGLTLAWRLQQGLSARGGSPQAVLLAEASSRVGGCISTQSKDGYRWEEGPNSFTPTPALLNLIAEVGLTDQLVLADAKLPAYIYWEGALLPVPLSPAAALGSRLLSVGGKLRALQGLLGFVPPPPGHEETVRQFFRRQLGSEVAERLVEPFTSGVYAGDPDQLSAVAAFPRVAGLEERYGSLFAGALQALRQRPQPSPAAIQPPPKRGQLGNLRQGLQQLPEALAQKLGDSLRLGWRALQLKRAGELYWVGFETPEGSRWVAARQVVLALPAYEAAALLQELNPPASQLLAEILYPPVAVVALAYPQEALPQPLRGFGHLIPRSQGLRTLGTIWASCLFPERAPQGYHSFLSFLGGATDAALARRRGIPPIPALSPEERAQIAHAELSQVLLTRRAEPVYLGERLWPRAIPQYTLGHRQRIAQVQAHLASQTPGIWVCANYLDGVALGDCVRRAEALAQQLLSQV | 87 |

Reference: patent publication US11466286B2, “Methods and compositions for conferring and/or enhancing herbicide tolerance using protoporphyrinogen oxidase or variant thereof” (FarmHannong Co., Ltd., priority 2016, dated 2022)
